For the series, the system named is Escherichia coli TOP10. The series can be described thus: shrunken log2 fold change of peptide-encoding DNA abundance (4.5 h post-induction vs induction); higher = less antimicrobial activity (less host growth inhibition). The conditions noted are these: time post-induction: 4.5 h; library: site-saturation at positions 5, 18, 19, 20.
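Further: peptides expressed intracellularly from a pBAD plasmid library in pooled LB shake-flask culture, induced with 0.3% L-arabinose, DNA abundance read by NGS, three biological replicates, DESeq2 with apeglm shrinkage.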

As to RRIRCRPPRLPRPRPRPGNIPRP, the “shrunken log2 fold change” value is -0.198.

As for RRIRWRPPRLPRPRPRPFLEPRP, the “shrunken log2 fold change” value amounted to 0.0541.

As for RRIRTRPPRLPRPRPRPDAIPRP, the “shrunken log2 fold change” value was -0.141.

On to RRIRMRPPRLPRPRPRPCMNPRP, for which the “shrunken log2 fold change” value is -0.217.

As to RRIRFRPPRLPRPRPRPAWHPRP, the “shrunken log2 fold change” value was 0.259.

Turning to RRIRMRPPRLPRPRPRPCICPRP, the “shrunken log2 fold change” value was -0.0505.

For RRIRPRPPRLPRPRPRPQPWPRP, the “shrunken log2 fold change” value was 0.348.

Turning to RRIRIRPPRLPRPRPRPRYGPRP, the “shrunken log2 fold change” value was -0.411.

For the sequence RRIRWRPPRLPRPRPRPVCWPRP, the “shrunken log2 fold change” value turned out to be 0.758.

In the case of RRIRYRPPRLPRPRPRPQACPRP, the “shrunken log2 fold change” value worked out at 0.00187.

Consider RRIRIRPPRLPRPRPRPEYIPRP, for which the “shrunken log2 fold change” value was -0.667.

Turning to RRIRRRPPRLPRPRPRPMHFPRP, the “shrunken log2 fold change” value is 0.0461.

Consider RRIRWRPPRLPRPRPRPKDAPRP, for which the “shrunken log2 fold change” value turned out to be 0.362.

Turning to RRIRYRPPRLPRPRPRPANGPRP, the “shrunken log2 fold change” value was -0.6.

RRIRSRPPRLPRPRPRPRNQPRP: the “shrunken log2 fold change” value came out at 0.205.

RRIRERPPRLPRPRPRPRTAPRP: the “shrunken log2 fold change” value came to 0.131.

Consider RRIRFRPPRLPRPRPRPGKWPRP, for which the “shrunken log2 fold change” value was -0.0163.

For the sequence RRIRDRPPRLPRPRPRPRCEPRP, the “shrunken log2 fold change” value worked out at 0.161.

For RRIRCRPPRLPRPRPRPMWGPRP, the “shrunken log2 fold change” value is -0.214.

With RRIRTRPPRLPRPRPRPTYEPRP, the “shrunken log2 fold change” value was -0.174.

RRIRCRPPRLPRPRPRPFVCPRP: the “shrunken log2 fold change” value is -0.242.

With RRIRTRPPRLPRPRPRPFRYPRP, the “shrunken log2 fold change” value is -0.0915.

Regarding RRIRTRPPRLPRPRPRPECCPRP, the “shrunken log2 fold change” value is 0.348.

Take RRIRCRPPRLPRPRPRPFWEPRP: the “shrunken log2 fold change” value is -0.0195.

Regarding RRIRMRPPRLPRPRPRPQHWPRP, the “shrunken log2 fold change” value worked out at 0.155.

For the sequence RRIRQRPPRLPRPRPRPAWAPRP, the “shrunken log2 fold change” value was found to be 0.263.

In the case of RRIRCRPPRLPRPRPRPVDHPRP, the “shrunken log2 fold change” value was -0.148.

For the sequence RRIRIRPPRLPRPRPRPAWNPRP, the “shrunken log2 fold change” value was 0.146.

Consider RRIRGRPPRLPRPRPRPWQVPRP, for which the “shrunken log2 fold change” value is -0.00145.

Turning to RRIRQRPPRLPRPRPRPEPPPRP, the “shrunken log2 fold change” value is 0.488.

As for RRIRGRPPRLPRPRPRPILLPRP, the “shrunken log2 fold change” value is -0.0679.

With RRIRTRPPRLPRPRPRPSCHPRP, the “shrunken log2 fold change” value is -0.783.

Consider RRIRIRPPRLPRPRPRPGLDPRP, for which the “shrunken log2 fold change” value came out at 0.0575.

Regarding RRIRLRPPRLPRPRPRPMTVPRP, the “shrunken log2 fold change” value is -0.108.

Take RRIRIRPPRLPRPRPRPGRCPRP: the “shrunken log2 fold change” value was -0.0543.

RRIRNRPPRLPRPRPRPFDGPRP: the “shrunken log2 fold change” value is -0.0509.

RRIRGRPPRLPRPRPRPPEEPRP: the “shrunken log2 fold change” value came out at 1.5.

As for RRIRERPPRLPRPRPRPDGRPRP, the “shrunken log2 fold change” value is -0.03.

As to RRIRMRPPRLPRPRPRPCWAPRP, the “shrunken log2 fold change” value is 0.168.

As for RRIRTRPPRLPRPRPRPVCPPRP, the “shrunken log2 fold change” value worked out at 0.186.

RRIRFRPPRLPRPRPRPFSDPRP: the “shrunken log2 fold change” value is -0.229.

Turning to RRIRRRPPRLPRPRPRPPSGPRP, the “shrunken log2 fold change” value was 0.682.

RRIRLRPPRLPRPRPRPKQYPRP: the “shrunken log2 fold change” value was -0.661.

As to RRIRSRPPRLPRPRPRPLKYPRP, the “shrunken log2 fold change” value was -0.653.

For RRIRWRPPRLPRPRPRPPEGPRP, the “shrunken log2 fold change” value was found to be 0.163.

Take RRIRPRPPRLPRPRPRPYSCPRP: the “shrunken log2 fold change” value was -0.183.

Regarding RRIRTRPPRLPRPRPRPILWPRP, the “shrunken log2 fold change” value is 0.0348.

Take RRIRPRPPRLPRPRPRPNTVPRP: the “shrunken log2 fold change” value was -0.411.

RRIRLRPPRLPRPRPRPDKNPRP: the “shrunken log2 fold change” value is -0.0881.

Regarding RRIRGRPPRLPRPRPRPVAAPRP, the “shrunken log2 fold change” value was found to be 1.73.

For RRIRMRPPRLPRPRPRPDRGPRP, the “shrunken log2 fold change” value amounted to 0.367.

For RRIRSRPPRLPRPRPRPFVDPRP, the “shrunken log2 fold change” value was -0.228.

Regarding RRIRHRPPRLPRPRPRPNQHPRP, the “shrunken log2 fold change” value was -0.922.

Turning to RRIRSRPPRLPRPRPRPYFPPRP, the “shrunken log2 fold change” value was -0.694.

As to RRIRLRPPRLPRPRPRPANGPRP, the “shrunken log2 fold change” value was 0.115.

In the case of RRIRERPPRLPRPRPRPSEKPRP, the “shrunken log2 fold change” value was -0.0759.

Take RRIRDRPPRLPRPRPRPIANPRP: the “shrunken log2 fold change” value is 0.274.

On to RRIRLRPPRLPRPRPRPNEKPRP, for which the “shrunken log2 fold change” value was -0.00697.

In the case of RRIRPRPPRLPRPRPRPKTCPRP, the “shrunken log2 fold change” value is -0.124.

RRIRVRPPRLPRPRPRPDDTPRP: the “shrunken log2 fold change” value was -0.00824.

As for RRIRYRPPRLPRPRPRPPHSPRP, the “shrunken log2 fold change” value was -0.699.

For the sequence RRIRTRPPRLPRPRPRPTHDPRP, the “shrunken log2 fold change” value worked out at 0.139.

Turning to RRIRWRPPRLPRPRPRPSGQPRP, the “shrunken log2 fold change” value is -0.0599.

For RRIRCRPPRLPRPRPRPLGPPRP, the “shrunken log2 fold change” value is 0.106.

For the sequence RRIRKRPPRLPRPRPRPKMGPRP, the “shrunken log2 fold change” value is 0.0837.

For RRIRARPPRLPRPRPRPQMTPRP, the “shrunken log2 fold change” value amounted to 0.0889.

On to RRIRSRPPRLPRPRPRPFEKPRP, for which the “shrunken log2 fold change” value came to 0.00827.

Consider RRIRLRPPRLPRPRPRPTNSPRP, for which the “shrunken log2 fold change” value was -0.355.

Consider RRIRLRPPRLPRPRPRPVEFPRP, for which the “shrunken log2 fold change” value was found to be 0.0713.

As for RRIRYRPPRLPRPRPRPNMTPRP, the “shrunken log2 fold change” value is -0.00766.

For RRIRQRPPRLPRPRPRPWISPRP, the “shrunken log2 fold change” value is -0.0848.

As to RRIRRRPPRLPRPRPRPINHPRP, the “shrunken log2 fold change” value was -0.273.

On to RRIRVRPPRLPRPRPRPINWPRP, for which the “shrunken log2 fold change” value was -0.147.

For RRIRRRPPRLPRPRPRPGDLPRP, the “shrunken log2 fold change” value came out at 1.58.

With RRIRFRPPRLPRPRPRPQYLPRP, the “shrunken log2 fold change” value was -0.329.

As to RRIRKRPPRLPRPRPRPNPEPRP, the “shrunken log2 fold change” value was 0.0292.

With RRIRMRPPRLPRPRPRPDSNPRP, the “shrunken log2 fold change” value is 0.754.

On to RRIRDRPPRLPRPRPRPEWIPRP, for which the “shrunken log2 fold change” value was determined as 0.0504.

Regarding RRIRTRPPRLPRPRPRPNLLPRP, the “shrunken log2 fold change” value was -0.245.

Turning to RRIRARPPRLPRPRPRPIFIPRP, the “shrunken log2 fold change” value was determined as 0.127.

For RRIRWRPPRLPRPRPRPATWPRP, the “shrunken log2 fold change” value worked out at 0.152.

For the sequence RRIRLRPPRLPRPRPRPYYKPRP, the “shrunken log2 fold change” value was -0.569.

Take RRIRARPPRLPRPRPRPVRLPRP: the “shrunken log2 fold change” value turned out to be 0.371.

RRIRFRPPRLPRPRPRPFGTPRP: the “shrunken log2 fold change” value was -0.587.

On to RRIRKRPPRLPRPRPRPVEYPRP, for which the “shrunken log2 fold change” value worked out at 0.0119.

Turning to RRIRIRPPRLPRPRPRPLTGPRP, the “shrunken log2 fold change” value is -0.0674.

Regarding RRIRFRPPRLPRPRPRPRASPRP, the “shrunken log2 fold change” value came out at 0.33.

Take RRIRKRPPRLPRPRPRPFHCPRP: the “shrunken log2 fold change” value was -0.0128.

Turning to RRIRMRPPRLPRPRPRPFTEPRP, the “shrunken log2 fold change” value came to 0.0426.

In the case of RRIRVRPPRLPRPRPRPWDAPRP, the “shrunken log2 fold change” value was -0.0951.

Consider RRIRCRPPRLPRPRPRPPTIPRP, for which the “shrunken log2 fold change” value is -0.158.

For the sequence RRIRNRPPRLPRPRPRPDQLPRP, the “shrunken log2 fold change” value was found to be 0.0418.

Regarding RRIRLRPPRLPRPRPRPFYRPRP, the “shrunken log2 fold change” value was -0.295.

With RRIRIRPPRLPRPRPRPIYFPRP, the “shrunken log2 fold change” value was -0.233.

Regarding RRIRYRPPRLPRPRPRPPMWPRP, the “shrunken log2 fold change” value worked out at 0.53.

Regarding RRIRIRPPRLPRPRPRPCYSPRP, the “shrunken log2 fold change” value was -0.0549.

Regarding RRIRRRPPRLPRPRPRPIPFPRP, the “shrunken log2 fold change” value is -0.175.

With RRIRSRPPRLPRPRPRPVQCPRP, the “shrunken log2 fold change” value was -0.102.

On to RRIRVRPPRLPRPRPRPRFSPRP, for which the “shrunken log2 fold change” value was -0.17.

Take RRIRSRPPRLPRPRPRPDYAPRP: the “shrunken log2 fold change” value was -0.0222.

As to RRIRWRPPRLPRPRPRPEPDPRP, the “shrunken log2 fold change” value stood at 0.901.

Consider RRIRNRPPRLPRPRPRPFSTPRP, for which the “shrunken log2 fold change” value was -0.226.

Consider RRIRRRPPRLPRPRPRPWGWPRP, for which the “shrunken log2 fold change” value amounted to 0.482.

Consider RRIRLRPPRLPRPRPRPMICPRP, for which the “shrunken log2 fold change” value is 0.13.

As for RRIRLRPPRLPRPRPRPMPVPRP, the “shrunken log2 fold change” value is 0.132.

As for RRIRIRPPRLPRPRPRPYPLPRP, the “shrunken log2 fold change” value is -0.176.

In the case of RRIRGRPPRLPRPRPRPTEEPRP, the “shrunken log2 fold change” value was determined as 0.525.

Consider RRIRMRPPRLPRPRPRPEFPPRP, for which the “shrunken log2 fold change” value was 0.745.

As for RRIRLRPPRLPRPRPRPIEQPRP, the “shrunken log2 fold change” value is -0.0092.

As to RRIRSRPPRLPRPRPRPDDQPRP, the “shrunken log2 fold change” value was 0.143.

RRIRVRPPRLPRPRPRPHAFPRP: the “shrunken log2 fold change” value is 0.0978.

For RRIRNRPPRLPRPRPRPCADPRP, the “shrunken log2 fold change” value came to 1.47.

Take RRIRQRPPRLPRPRPRPLQLPRP: the “shrunken log2 fold change” value was -0.126.

Take RRIRDRPPRLPRPRPRPSKTPRP: the “shrunken log2 fold change” value was determined as 0.0521.

Consider RRIRCRPPRLPRPRPRPYRMPRP, for which the “shrunken log2 fold change” value was -0.197.

With RRIRARPPRLPRPRPRPDMTPRP, the “shrunken log2 fold change” value turned out to be 0.723.

In the case of RRIRFRPPRLPRPRPRPVEGPRP, the “shrunken log2 fold change” value was -0.0615.

RRIRARPPRLPRPRPRPFPIPRP: the “shrunken log2 fold change” value came to 0.264.

On to RRIRWRPPRLPRPRPRPYLWPRP, for which the “shrunken log2 fold change” value was -0.153.

As for RRIRIRPPRLPRPRPRPYLRPRP, the “shrunken log2 fold change” value is -0.086.

RRIRRRPPRLPRPRPRPGSKPRP: the “shrunken log2 fold change” value was -0.0919.

Take RRIRMRPPRLPRPRPRPMQCPRP: the “shrunken log2 fold change” value was -0.0018.

In the case of RRIRTRPPRLPRPRPRPFNTPRP, the “shrunken log2 fold change” value was -0.0686.

Take RRIRNRPPRLPRPRPRPVGMPRP: the “shrunken log2 fold change” value stood at 0.23.

Regarding RRIRPRPPRLPRPRPRPQREPRP, the “shrunken log2 fold change” value was -0.063.

Values taken from the supplement of paper PMC9112550, “Optimization of the antimicrobial peptide Bac7 by deep mutational scanning” (BMC Biology, 2022).
